Data as given in the supplement of paper PMC9170038.

Test system: MS2 coat protein
Experiment: apparent KD of MS2 coat protein; designed switch direction (-1 OFF switch, 1 ON switch): -1; higher = weaker reporter binding
Outline: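 The buffer was Tris-HCl pH 7.5 with KCl, MgCl2, BSA, DTT, tRNA and Tween-20. In it, SNAP-549-labelled MS2 coat protein was titrated in doubling steps from 0.7 or 1.5 nM to 3 µM over chip-bound RNA switches transcribed by stalled E. coli RNA polymerase on Illumina chips. Apparent KD is the per-design median over clusters of curve fits to normalised fluorescence.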

[1] = input ligand: microRNA oligo, concentration not stated
[2] = Eterna round: R95, input ligand: FMN 200 uM
[3] = Eterna round: R95, input ligand: microRNA oligo, concentration not stated
[4] = Eterna round: R95, input ligand: none

Sequence | apparent KD of MS2 coat protein (input ligand: FMN 200 uM) [nM] | apparent KD of MS2 coat protein [1] [nM] | apparent KD of MS2 coat protein (input ligand: none) [nM] | apparent KD of MS2 coat protein [2] [nM] | apparent KD of MS2 coat protein [3] [nM] | apparent KD of MS2 coat protein [4] [nM]
AACUCAUGUUCAGGAUAUCGCGUUCCAAAGACAUGAGAAGGGAACAUGAGGAUCACCCAUGUACCCGGUCUCAGACCGGGCUUC [Tiriaron] (Eterna round: R96, puzzle: Exclusion NG 1) | 115 | 41.8 | 64.1 | – | – | –
ACAUGAGGAUCACCCAUGUAAUGAUGGGUACUAUAUUAUUCGUAGGAUAUCGUUGUUAGUUUGUUCGAGAAGGACGAUUGCCUU [JR_ExcNG3_Sub054] (Eterna round: R96, puzzle: Exclusion NG 3) | 612 | 385 | 520 | – | – | –
GGUCGGCGAGGAUAUACAUGAGGAUCACCCAUGUGAGAUAGUGCACGCGUACGUGUACGUAGAAGGCGCUGACG [JL-ex3-3.25 salish99 mod] (puzzle: Exclusion 3) | – | – | – | 26.1 | 12.4 | 8.3
UCUAUGAUGCGAGGAUAUCGACCAUUCCUCUUUACAUGAGGAUCACCCAUGUUCGUACGCUACAACGAGAAGGCGCACUAAGAU [JR_ExcNG2_Sub059] (Eterna round: R96, puzzle: Exclusion NG 2) | 438 | 101 | 194 | – | – | –
AGCAGACGAGGAUAUAGAUUUAAGUACAUGAGGAUCACCCAUGUACAUAUGUAUUUAGAUUUAGAAGGCGUCUGCU [E5/16-A1] (Eterna round: R97, puzzle: Exclusion 5) | 27.7 | – | 28.6 | – | – | –
CUUAGACAUGAGGAUCACCCAUGUGAGGAUAUGAAAUUAAUUAAUUAUUAAUUAUGAAUCAGAAGGCACAUAUG [Mat - Mod of Hyphema D37] (puzzle: Exclusion 1) | – | – | – | 121 | 47.9 | 50.9
AGUGCGUAUGUGAGGAUAUGCUGGUCCUUGGAUCGGCAGAAGGCACAUGAGGAUCACCCAUGUGGUGUCGUACA [salish99_Bmod_ex4_085] (puzzle: Brourd's mod of Exclusion 4) | – | – | – | 21.5 | 257 | 263
CCUUUGUCAGGAUAUCAGUACAGGUCGAGUUUAGACCUGUUUGAGAAGGGACAUGAGGAUCACCCAUGUAAAAC [Inzaerle] (puzzle: Exclusion 4) | – | – | – | – | 78 | –
GCACUGACAGGAUAUACAUGAGGAUCACCCAUGUGACCCUUAUAGUACUCGCGUACAAGUAGAAGGGUCUGUGC [Omei Ex3 Model Bachelor's Dilema v31] (Eterna round: R97, puzzle: Exclusion 3) | 382 | – | 107 | – | – | –
UCUGGUCGAGGAUAUACAUUCGUGCUUCGGCACGUAAGGUCACAUGAGGAUCACCCAUGUAGAAGGCGACCAGA [E2/7-A3] (Eterna round: R97, puzzle: Exclusion 2) | 181 | – | 38.4 | – | – | –
UAUACUAGAUAGGAUAUACUUUAUUUUUUUUUCGUAGAAGGAUCUACAUGAGGAUCACCCAUGUUAACAGCAGU [JR_E6_Sub008] (puzzle: Exclusion 6) | – | – | – | – | 55.1 | –
GAUUAUGCGAGCUUUAGGGACAUGAGGAUCACCCAUGUUCGUCUUAUUAAUCUAGGUACACUAACAUACCUAAAUCU [JMF 10] (puzzle: Sensor v3, turn-off variant 1) | – | – | – | 23.9 | 37.6 | 21.4
UUAUAUAAUGUGAGGAUAUGCUGGUCCUUAGAUCAGCAGAAGGCACAUGAGGAUCACCCAUGUAGUAAAUUUUA [Mat - Exclusion 4 - JL Mod - D11] (puzzle: Brourd's mod of Exclusion 4) | – | – | – | 25 | 15.3 | 16.8
AAAAGAAAAGUAGGAUAUGUGAAAGGAAGUGUAACAGAAGGACUGUGGGUCUUCCGACAUGAGGAUCACCCAUGUAAAAGAAAA [PowerStrip EXNG 1.8] (Eterna round: R96, puzzle: Exclusion NG 1) | 114 | 6.35 | 53.9 | – | – | –
AUAUGUAACUAGGAUAUCAGCAUACUUCAAUGUUGAGAAGGAGUUACAUGAGGAUCACCCAUGUAUCCAACAUG [Exclusion 6 - 3] (Eterna round: R96, puzzle: Exclusion 6) | 73.3 | 56.7 | 67.1 | – | – | –
CUUAUGUGAGGAUAUGCCUGGCCGUGAGGCCAAAUUGAUAAGCAGAAGGCACAUGAGGAUCACCCAUGUGCGGG [jl-ex4-4.68 ViennaUCT mod] (Eterna round: R97, puzzle: Exclusion 4) | 112 | – | 241 | – | – | –
GGACCGAUUGUUAGGAUAUCGCACGGCUAGCCCAGCGAGAAGGGACAUGAGGAUCACCCAUGUGCGCUUAGCAC [Eternabot (L1) Solution 50] (Eterna round: R97, puzzle: Brourd's mod of Exclusion 4) | 156 | – | 155 | – | – | –
GUCCUUAACGAGGAUAUCGGGCGGGUUUUUGUUUGAGAAGGCGUGACAUGAGGAUCACCCAUGUGGCGCGUGGG [-24.6, -21.7 kcal, A 19%] (Eterna round: R97, puzzle: Exclusion 6) | 36.7 | – | 29.7 | – | – | –
CUUCUGUGAGGAUAUGUGAACCCGUGCCGAAAGGAUGGGAAACAGAAGGCACAUGAGGAUCACCCAUGUAAAAU [Isergeat] (puzzle: Exclusion 4) | – | – | – | – | 29.1 | –
CUGAGGUAGCGGUCCUAUGACAUGAGGAUCACCCAUGUACCUUGCUUUGAGCUUUAUGCUCGUCUUAUGAUUCUCGG [Mat - Sensor v3 - turn-off var 1 - JL Mod - D42] (puzzle: Sensor v3, turn-off variant 1) | – | – | – | 585 | 537 | 546
AUUAAGCAGCAGGAUAUAAUUAUCUGAAGGUGGUUAGAAGGGCUGACAUGAGGAUCACCCAUGUGCUCUUCGUG [Diries] (puzzle: Exclusion 6) | – | – | – | – | 14.7 | –
GAAAAUGUAGAGGAUAUUUCAGAUCAAGACUGCAAAGAAGGCUGCACAUGAGGAUCACCCAUGUGGUCAACAAA [Mod of Quesina 15 - Jieux - Exclusion 6] (Eterna round: R97, puzzle: Exclusion 6) | 79.1 | – | 22.3 | – | – | –
UAGAAUCGAGGAUAUACAUGAGGAUCACCCAUGUGUGGCCAUACUGUGUGGUCGUCAGGUAGAAGGCGAUUAUA [Exclusion 3 - Mod of Jieux's Gilly Gone Silly 23] (puzzle: Exclusion 3) | – | – | – | – | 45.4 | –
ACCUCACAUGAGGAUCACCCAUGUCAGGAUAUUCAAACAGGCGGAACUCCGCCUUCUCGAAGAAGGGACAUUAA [Ontebileza] (Eterna round: R96, puzzle: Exclusion 1) | 62.1 | 15.9 | 16.4 | – | – | –
AGUCAGGCGGUAGGAUAUCCAAAUCGAGUGACCCUCUCAUAACAUGAGGAUCACCCAUGUCGGUGGGAGAAGGGCCGUACGGCG [JL ViennaUCT Atra mod] (Eterna round: R96, puzzle: Exclusion NG 2) | 108 | 53.8 | 47.8 | – | – | –
